Results published in patent US20230133775A1 (University of California, published 2023).

Molecular target: T1, Leucine-rich repeat-containing protein 15 (LRRC15) on LRRC15-expressing cells (UniProt Q8TF66 22-581, limits assumed)
T1 construct: whole, on cells; also called leucine-rich repeat containing 15
T1 sequence (looked up): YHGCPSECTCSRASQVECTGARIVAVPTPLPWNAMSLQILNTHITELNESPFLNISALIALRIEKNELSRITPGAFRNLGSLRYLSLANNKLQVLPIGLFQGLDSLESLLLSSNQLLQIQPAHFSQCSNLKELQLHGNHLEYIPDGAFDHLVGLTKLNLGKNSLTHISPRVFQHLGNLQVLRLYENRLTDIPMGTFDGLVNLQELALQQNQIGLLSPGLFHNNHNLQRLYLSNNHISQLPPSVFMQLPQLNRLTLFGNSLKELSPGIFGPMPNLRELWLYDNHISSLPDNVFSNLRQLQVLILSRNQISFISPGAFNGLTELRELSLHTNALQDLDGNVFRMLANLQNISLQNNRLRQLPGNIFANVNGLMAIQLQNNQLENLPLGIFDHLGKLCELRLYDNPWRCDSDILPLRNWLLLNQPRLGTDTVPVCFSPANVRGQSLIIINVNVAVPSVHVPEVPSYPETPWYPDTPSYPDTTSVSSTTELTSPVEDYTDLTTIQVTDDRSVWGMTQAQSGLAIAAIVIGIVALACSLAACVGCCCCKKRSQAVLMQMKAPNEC
Test: LigandTracer, radiolabeled antibody on live target cells
Procedure: DUNP 19 was developed by humanization of a hybridoma mAb generated from immunizing mice with stably transfected LRRC15-expressing 3T3 cells. […] Liquid chromatography-mass spectrometry (LC-MS) analysis of DUNP19 incubated with LRRC15-expressing cell lines confirmed molecular binding specificity. […] LigandTracer (Ridgeview Instruments) was utilized to assess binding interaction between live cells and Lutetium-177 labeled DUNP19 ([¹⁷⁷Lu]DUNP19). […] Internalization rate was studied by quantifying emitted fluorescence over time from SAOS2 cells incubated with pH-responsive dye-labeled DUNP19. Identification of colocalization of Alexa-488 labeled DUNP19 with intracellular markers (DAPI and LAMP1) in SAOS2 cells over time was applied to further confirm time of internalization.

Kd: 0.329 nM
B1: Lutetium-177 labeled DUNP19 ([177Lu]DUNP19) (antibody, V domains shown)
VH: QVQLVQSGAEVKKPGASVKVSCKASGYTFTDYYIHWVRQAPGQGLEWMGWINPNSDGTNYAQNFLGRVTMTRDTSISTAYMELSRLRSDDSAVYHCVREGRYSTSPFDYWGQGTLVTVSS
VL: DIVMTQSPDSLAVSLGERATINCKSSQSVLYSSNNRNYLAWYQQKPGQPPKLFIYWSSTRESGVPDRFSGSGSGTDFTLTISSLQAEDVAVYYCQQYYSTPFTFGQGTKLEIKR
notes: also called 177Lu-DOTA-DUNP19
